The series in a line: soluble fraction after stress (log2 fold change); higher = more stays soluble; pooled small domains, quantitative proteomics. As to conditions: stress: 50 degC. The method, boiled down:
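The stress applied to every library was 50°C. These custom libraries of small protein domains were pooled and measured at high throughput with quantitative proteomics as the read-out. Aggregation propensity is expressed as the base-two logarithm of the fold change in how much of each protein remains soluble. The higher the value, the more of that protein stays in solution.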

Experimental findings from the domain aggregation screens of Martell et al. (2025) are described below.

For the sequence “HMKRNTKAEVLEILLNSGETPVSGERLAENLGISRNAVWKAVTALKEDGYNISAKRNSGYILNKS”, the “soluble fraction (log2)” value is -0.0063.

As to “HMPPNVLSEREQEVLQLAADGMSNKEMGSELYIAPTTVRDHMQSIMRKLQVNSRTAAAVAGLKLGLLD”, the “soluble fraction (log2)” value was -0.1. The same measure for “HMLMKILTDALEKMSPEELKELAEATGVKNTSSITPETMVGVFQAVFRVGGFKSYQLTLIIVNAVLKA”: -0.126; for “HMHSVIALTIPADYAGLRLDQALAKLLPNWSRSRLQTWIAENRVILDGQITTIKQKVWGNELIQISPQD”: -1.45; for “HMLELTVSDKMARLMAWRNRRRVNLSDQELHRIAAAPKQSPESILKMLPGFLQDSVPEIWAELTGGRP”: -0.192.

In the case of “HMSIQDLMNSKDLSGFKVEMLSNEDIVKYKSMLQSSGFSESQAEQLALQRGLPTSELIKLRTRISDVAVT”, the “soluble fraction (log2)” value was found to be 0.0344. For the sequence “HMQSVPELDQQFKIAIENNDFIKLAQLKEQGYHPSKEVMQSLSNTTPNNTIIAVQKIFGLKA”, the “soluble fraction (log2)” value was found to be 0.231. For the sequence “HMGPRPLPAEFTHPSLRALLALGTTRGGVTSADVKTALEAASVPAGRRAAVLRALDDNGIEVHTEP”, the “soluble fraction (log2)” value was 0.0376. The value for “HMPKAMAIMSEIAGTVHIDDTKKSRHVEVTGVDDNGAPVTKSYLIPFGHRLKVMEGDVLVKGALLT” was -0.0964. The same measure for “HMDDNMNEQWKMILNSIAKKGSVTRQETEKILGIGQTRAHVLLKAMIHAGMIKAVGDGKKRRYVR”: -1.01; for “HMKNQQLFNIGDRFQVDGVAYRMEKLFPENGTVEVYNLGVGRHKTMSFEEILALWNSGKLLFEI”: -0.185; for “HMFELTVGTPIRVIREPYFGKLGTVTELPAQLMVVESGTEVRVLKAKIEGEGEVLVPRANVEIIATG”: -0.0828. The value for “HMPSSAYGPYKNVFLSNSELTKLKNELPTSWEHYINRLSEYMRSTGRQYQSHAATILRWAATDRNS” was -0.139; that for “HMKKHALFTLFKHHNANGTTVWYARFWDDATQRYAIARSTGVLAQGKRERHDEAITVAREMASSIQFS” was -2.6. For “HMSESIFTLYGDEKFEKIRYYLKERGFITLDALARFDFDELLFVPGVSELLISEAKQLFSRYDTSSLAAKE”, the “soluble fraction (log2)” value was -0.17. The same measure for “HMDDPISSMVNRIRLAFGLSVTDLAAVLGVERPTIYSWLKDGSTPAPARLTRVRQVLSLADTW”: -0.194; for “HMQNVFARKNLTSVSVDKLGEEEILLFKQSFESKNLTSSEALRDLSKKGMSEAELRKLKVRLTQL”: -0.074. Take “HMIHQPNNETTRNLIAGVVKKSLSVWETRVQVDGVDVTTAKDNLAEVHINIRYRLRHNQTPASLGLRLNLG”: the “soluble fraction (log2)” value stood at 0.00106. The value for “HMNVPLYIMIESAVEQRLLDGTYQVGKMIPTEFELMDEFSVSRETVRKAINLLVQRGKLEKKRGIGTFVAS” was -2.92; that for “HMVEIPEFKITTFVNTDNEQIAEFENGFTDKKAEITFNNTKYVFKEKLPDQDGIRTYVYEELHE” was 0.117. The value for “HMEVKRANRKERFLEALPYQFSRQDYLNIADKNKIPHKTAEGYITKFVDAGLIHREAHNNYTNPTKA” was 0.146; that for “HMDLKSLEFAIVENVQRHDLNPLEEAQGYKRLIDEFSYDQDKVSKFIGKSRSYITNSLRLLNLPLEVLEF” was -0.049; that for “HMAYMETIERVEALAPGTKFNLKALFGTDWTQSRGTKLTLGKTFYEMVESGYVKTAKVLGKDSSNIMQYER” was -0.107.

As for “HMAAQDIILKRNAEQIEAIVKEITDTDVKYRKFTNTEGVTYSIRRSEVFSITYENGTMDLFA”, the “soluble fraction (log2)” value was determined as 0.0231. As for “HMFTRFTVAQDGWTIGGFTAKEMAVSTAKQHAVDTGKPVTVVAHVAGGGSREAIFNSDGTNDKIWN”, the “soluble fraction (log2)” value turned out to be 0.0601.

Regarding “HMLDVNLIFSRPGFSLSAAFTLHAGGITVLRGDSGSGKTTLADLLSGAIAPQKGRILSDGDIWFDAASGIN”, the “soluble fraction (log2)” value was 0.22. The value for “HMSRLMIVTPDGRIMDDVPEFGEVRTTTDVNGRVLVLDRNNVVIGFEMTPREYRREFGRNPF” was -0.643; that for “HMQGVNLTETEKNFIAQVLSPLLKQGQSLYQIRTNHPEIKLSVKTLYTYIESGIFKESGINNFSLRRQ” was 0.0431; that for “HMGTDGLKDIVLEILKEHPNQLAELIDGKQKVLGFLVGQVMKKTNGAANPKEVNEIIQGEIKK” was -0.0707. The same measure for “HMNDLDSLWDIWENLNERGIGDKSEEGQELRDAIREFIDTNELNVRVTRNKTNEDLLTDIEDALEVAKNS”: -0.33; for “HMTFGENLIRLRRQQGLSQEQLGMRIGVSRQTVSKWELNDTTPEMEKLIALADLFGLSLDELTGRV”: -0.115; for “HMNVDSLIGQTARVIVDINNNDSIGYALVGGQEWTARAENDNDIIPKDTLVEIVGVSGVKLIVRRKE”: -0.044. The value for “HMAAPELLTVRERQVAALISDGLSNQQIAHRLHLEVTTVKAHIGSIFNRLDMNNRVQIAIWAHDRQLVFS” was -0.266. Turning to “HMTATDRQLQLIAYTAARLMAEQGIADFNAAKRKAIQTLGLPNNAKLPGNADVEAQLRAYQRIF”, the “soluble fraction (log2)” value is -0.133. The value for “HMTTTSGLIKTIQTGRRKLGMDDETYRALLADVSGGKTSSKDLNAYQLKEVLRRMREAGFRS” was 0.218.
